# Measured values taken from US20060258562.
# B1: PKCδ (protein kinase C delta) (protein)
# chain: MAPFLRISFNSYELGSLQVEDEASQPFCAVKMKEALSTERGKTLVQKKPTMYPEWKTTFDAHIYEGRVIQIVLMRAAEDPVSEVTVGVSVLAERCKKNNGKAEFWLDLQPQAKVLMCVQYFLEDGDCKQSMRSEEEAKFPTMNRRGAIKQAKIHYIKNHEFIATFFGQPTFCSVCKEFVWGLNKQGYKCRQCNAAIHKKCIDKIIGRCTGTATNSRDTIFQKERFNIDMPHRFKVYNYMSPTFCDHCGSLLWGLVKQGLKCEDCGMNVHHKCREKVANLCGINQKLLAEALNQVTQRSSRKLDTTESVGIYQGFEKKPEVSGSDILDNNGTYGKIWEGSTRCTLENFTFQKVLGKGSFGKVLLAELKGKDKYFAIKCLKKDVVLIDDDVECTMVEKRVLALAWESPFLTHLICTFQTKDHLFFVMEFLNGGDLMFHIQDKGRFELYRATFYAAEIICGLQFLHSKGIIYRDLKLDNVMLDRDGHIKIADFGMCKENIFGEGRASTFCGTPDYIAPEILQGLKYSFSVDWWSFGVLLYEMLIGQSPFHGDDEDELFESIRVDTPHYPRWITKESKDIMEKLFERDPDKRLGVTGNIRIHPFFKTINWSLLEKRKVEPPFKPKVKSPSDYSNFDPEFLNEKPQLSFSDKNLIDSMDQEAFHGFSFVNPKFEQFLDI
# Molecular target: STAT3 (Signal Transducer and Activator of Transcription 3), P42227
# Sequence (P42227 2-770): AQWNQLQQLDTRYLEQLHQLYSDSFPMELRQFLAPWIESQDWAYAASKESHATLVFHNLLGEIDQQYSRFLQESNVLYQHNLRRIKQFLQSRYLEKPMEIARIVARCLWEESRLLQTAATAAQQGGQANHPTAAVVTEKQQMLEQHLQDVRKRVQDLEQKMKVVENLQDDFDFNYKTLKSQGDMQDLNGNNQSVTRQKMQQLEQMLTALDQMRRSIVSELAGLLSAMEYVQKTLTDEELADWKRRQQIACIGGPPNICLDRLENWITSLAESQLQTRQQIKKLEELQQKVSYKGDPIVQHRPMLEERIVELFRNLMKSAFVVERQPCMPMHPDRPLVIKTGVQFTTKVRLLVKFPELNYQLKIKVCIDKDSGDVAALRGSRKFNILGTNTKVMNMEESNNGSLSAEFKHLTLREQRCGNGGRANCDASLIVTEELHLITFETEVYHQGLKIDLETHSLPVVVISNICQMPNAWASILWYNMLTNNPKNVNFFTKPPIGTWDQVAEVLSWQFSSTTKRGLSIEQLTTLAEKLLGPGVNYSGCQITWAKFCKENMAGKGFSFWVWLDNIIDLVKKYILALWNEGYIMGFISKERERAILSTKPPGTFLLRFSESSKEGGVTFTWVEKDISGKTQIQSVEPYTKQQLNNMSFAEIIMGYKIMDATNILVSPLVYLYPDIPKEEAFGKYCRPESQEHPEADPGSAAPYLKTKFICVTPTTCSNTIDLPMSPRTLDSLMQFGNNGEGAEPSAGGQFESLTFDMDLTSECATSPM
protein,measurement,value
B1,"immunofluorescence with antiphospho-Tyr-705-STAT3 antibody after insulin stimulation, with or without rottlerin","Following insulin stimulation, PKCδ is activated and in turn phosphorylates and activates STAT3"
